Assay results: US7262274

Biological target: human RANK, full length (expressed in or on cells) (human) (UniProt Q9Y6Q6)
Assay: cell-based or functional assay

UniProt Q9Y6Q6, sequence (Q9Y6Q6 30-616 limits assumed): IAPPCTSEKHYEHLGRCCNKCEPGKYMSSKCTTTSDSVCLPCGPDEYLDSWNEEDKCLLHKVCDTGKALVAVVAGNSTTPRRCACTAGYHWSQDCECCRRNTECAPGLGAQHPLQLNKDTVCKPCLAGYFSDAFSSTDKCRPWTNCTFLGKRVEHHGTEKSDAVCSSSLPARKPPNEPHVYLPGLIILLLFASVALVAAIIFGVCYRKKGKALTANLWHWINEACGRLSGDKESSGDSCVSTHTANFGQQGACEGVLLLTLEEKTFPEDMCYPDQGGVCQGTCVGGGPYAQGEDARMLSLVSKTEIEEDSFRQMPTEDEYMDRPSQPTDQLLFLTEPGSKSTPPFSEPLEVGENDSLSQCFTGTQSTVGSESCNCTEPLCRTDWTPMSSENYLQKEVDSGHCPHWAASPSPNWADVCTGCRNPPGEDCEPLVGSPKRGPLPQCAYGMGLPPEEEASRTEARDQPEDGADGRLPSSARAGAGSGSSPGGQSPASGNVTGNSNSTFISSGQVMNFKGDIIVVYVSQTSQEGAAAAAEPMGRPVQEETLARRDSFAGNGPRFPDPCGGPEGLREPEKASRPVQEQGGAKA

## RANKL (species and construct not stated at the place of use) (ligand)
  allo-stimulatory capacity of CD1a+ DC in a mixed lymphocyte reaction (MLR): > 10 fold
